The assay deals with T1, C-terminally 6x Histidine-tagged Beta-Catenin (aa 134-668, 59 KD) (UniProt P35222 134-668).
T1 construct: range 134-668; Armadillo repeat region
T1 sequence: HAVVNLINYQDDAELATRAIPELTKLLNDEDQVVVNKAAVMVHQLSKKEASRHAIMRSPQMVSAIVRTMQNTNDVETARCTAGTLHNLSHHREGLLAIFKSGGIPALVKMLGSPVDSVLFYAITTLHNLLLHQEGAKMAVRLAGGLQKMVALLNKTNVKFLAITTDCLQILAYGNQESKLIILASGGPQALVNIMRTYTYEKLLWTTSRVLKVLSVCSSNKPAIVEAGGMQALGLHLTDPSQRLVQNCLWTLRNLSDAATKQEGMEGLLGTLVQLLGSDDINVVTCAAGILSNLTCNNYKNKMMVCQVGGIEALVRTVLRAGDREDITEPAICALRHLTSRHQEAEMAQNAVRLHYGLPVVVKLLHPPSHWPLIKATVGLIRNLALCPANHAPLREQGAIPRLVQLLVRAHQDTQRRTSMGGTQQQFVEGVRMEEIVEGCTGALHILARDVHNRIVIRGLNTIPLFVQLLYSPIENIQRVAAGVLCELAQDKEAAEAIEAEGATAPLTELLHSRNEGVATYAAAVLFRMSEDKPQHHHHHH
In words: competitive fluorescence polarization, FAM-labelled linear probe as competitor, His-tagged beta-catenin 134-668. The gist of the method:
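FP competition in 25 mM Tris-HCl pH 7.5, 200 mM NaCl, 5 mM CHAPS, 2 mM DTT at room temperature. Competitor peptides at 40–0.7 μM 2× working range, constant DMSO. Probe (benchmark peptide with N-terminal FAM via β-Ala spacer) from 25 nM 10× stock. Read after 3 h in the dark, ex 485/em 528 nm.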
Background: Fluorescence polarisation rises when a labelled molecule tumbles more slowly, as on binding a larger partner.

Bridges are numbered along the chain shown (N, C = ends). [ ]: non-standard residue; d: D form. S5 = C=CCCC[C@](C)(N)C(=O)O

B1: SP60 (peptide)
peptide: Ac-LGANDELISF[S5]NQG[S5]QAAKSSNNSSA[S5]RNL[S5]AVKSSLV-NH2
modifications: staple 11-15, 27-31
SMILES: CC[C@H](C)[C@H](NC(=O)[C@H](CC(C)C)NC(=O)[C@H](CCC(=O)O)NC(=O)[C@H](CC(=O)O)NC(=O)[C@H](CC(N)=O)NC(=O)[C@H](C)NC(=O)CNC(=O)[C@H](CC(C)C)NC(C)=O)C(=O)N[C@@H](CO)C(=O)N[C@@H](Cc1ccccc1)C(=O)N[C@@]1(C)CCCC=CCCC[C@@](C)(C(=O)N[C@@H](CCC(N)=O)C(=O)N[C@@H](C)C(=O)N[C@@H](C)C(=O)N[C@@H](CCCCN)C(=O)N[C@@H](CO)C(=O)N[C@@H](CO)C(=O)N[C@@H](CC(N)=O)C(=O)N[C@@H](CC(N)=O)C(=O)N[C@@H](CO)C(=O)N[C@@H](CO)C(=O)N[C@@H](C)C(=O)N[C@@]2(C)CCCC=CCCC[C@@](C)(C(=O)N[C@@H](C)C(=O)N[C@H](C(=O)N[C@@H](CCCCN)C(=O)N[C@@H](CO)C(=O)N[C@@H](CO)C(=O)N[C@@H](CC(C)C)C(=O)N[C@H](C(N)=O)C(C)C)C(C)C)NC(=O)[C@H](CC(C)C)NC(=O)[C@H](CC(N)=O)NC(=O)[C@H](CCCNC(=N)N)NC2=O)NC(=O)CNC(=O)[C@H](CCC(N)=O)NC(=O)[C@H](CC(N)=O)NC1=O
By IC50 is commonly meant the concentration needed to halve the response being measured. With B1, the IC50 is no less than 100 µM.

B2: SP61 (peptide)
peptide: Ac-LGANDELISW[S5]DEG[S5]QQEKSSENSSA[S5]RDL[S5]NVKSSLV-NH2
modifications: staple 11-15, 27-31
SMILES: CC[C@H](C)[C@H](NC(=O)[C@H](CC(C)C)NC(=O)[C@H](CCC(=O)O)NC(=O)[C@H](CC(=O)O)NC(=O)[C@H](CC(N)=O)NC(=O)[C@H](C)NC(=O)CNC(=O)[C@H](CC(C)C)NC(C)=O)C(=O)N[C@@H](CO)C(=O)N[C@@H](Cc1c[nH]c2ccccc12)C(=O)N[C@@]1(C)CCCC=CCCC[C@@](C)(C(=O)N[C@@H](CCC(N)=O)C(=O)N[C@@H](CCC(N)=O)C(=O)N[C@@H](CCC(=O)O)C(=O)N[C@@H](CCCCN)C(=O)N[C@@H](CO)C(=O)N[C@@H](CO)C(=O)N[C@@H](CCC(=O)O)C(=O)N[C@@H](CC(N)=O)C(=O)N[C@@H](CO)C(=O)N[C@@H](CO)C(=O)N[C@@H](C)C(=O)N[C@@]2(C)CCCC=CCCC[C@@](C)(C(=O)N[C@@H](CC(N)=O)C(=O)N[C@H](C(=O)N[C@@H](CCCCN)C(=O)N[C@@H](CO)C(=O)N[C@@H](CO)C(=O)N[C@@H](CC(C)C)C(=O)N[C@H](C(N)=O)C(C)C)C(C)C)NC(=O)[C@H](CC(C)C)NC(=O)[C@H](CC(=O)O)NC(=O)[C@H](CCCNC(=N)N)NC2=O)NC(=O)CNC(=O)[C@H](CCC(=O)O)NC(=O)[C@H](CC(=O)O)NC1=O
With B2, the IC50 is 1 µM.

B3: SP62 (peptide)
peptide: LGANDELISFANEGAQEEKSSNNSSAARDLADVKSSLV
modifications: not fully specified; N-terminal acetyl; C-terminal amide; $ = (S)-alpha-(2'-pentenyl)alanine at positions 11 and 15 (first crosslink) and 27 and 31 (second crosslink), each pair joined by an all-carbon crosslinker with one double bond
For the molecule B3, the IC50 was 0.07 µM.

B4: SP63 (peptide)
peptide: Ac-LGANDELISF[S5]NEG[S5]QAEKSSNNSSA[S5]RNL[S5]DVKSSLV-NH2
modifications: staple 11-15, 27-31
SMILES: CC[C@H](C)[C@H](NC(=O)[C@H](CC(C)C)NC(=O)[C@H](CCC(=O)O)NC(=O)[C@H](CC(=O)O)NC(=O)[C@H](CC(N)=O)NC(=O)[C@H](C)NC(=O)CNC(=O)[C@H](CC(C)C)NC(C)=O)C(=O)N[C@@H](CO)C(=O)N[C@@H](Cc1ccccc1)C(=O)N[C@@]1(C)CCCC=CCCC[C@@](C)(C(=O)N[C@@H](CCC(N)=O)C(=O)N[C@@H](C)C(=O)N[C@@H](CCC(=O)O)C(=O)N[C@@H](CCCCN)C(=O)N[C@@H](CO)C(=O)N[C@@H](CO)C(=O)N[C@@H](CC(N)=O)C(=O)N[C@@H](CC(N)=O)C(=O)N[C@@H](CO)C(=O)N[C@@H](CO)C(=O)N[C@@H](C)C(=O)N[C@@]2(C)CCCC=CCCC[C@@](C)(C(=O)N[C@@H](CC(=O)O)C(=O)N[C@H](C(=O)N[C@@H](CCCCN)C(=O)N[C@@H](CO)C(=O)N[C@@H](CO)C(=O)N[C@@H](CC(C)C)C(=O)N[C@H](C(N)=O)C(C)C)C(C)C)NC(=O)[C@H](CC(C)C)NC(=O)[C@H](CC(N)=O)NC(=O)[C@H](CCCNC(=N)N)NC2=O)NC(=O)CNC(=O)[C@H](CCC(=O)O)NC(=O)[C@H](CC(N)=O)NC1=O
Regarding B4, the IC50 was determined as 1.19 µM.

B5: SP64 (peptide)
peptide: LGANDELISFANEGAQEEKSSNNSSAARNLADVKSSLV
modifications: not fully specified; N-terminal acetyl; C-terminal amide; $ = (S)-alpha-(2'-pentenyl)alanine at positions 11 and 15 (first crosslink) and 27 and 31 (second crosslink), each pair joined by an all-carbon crosslinker with one double bond
As to B5, the IC50 was determined as 0.541 µM.

B6: SP16 (peptide)
peptide: Ac-LGANDELISF[S5]DEG[S5]QEEKSSN-NH2
modifications: staple 11-15
SMILES: CC[C@H](C)[C@H](NC(=O)[C@H](CC(C)C)NC(=O)[C@H](CCC(=O)O)NC(=O)[C@H](CC(=O)O)NC(=O)[C@H](CC(N)=O)NC(=O)[C@H](C)NC(=O)CNC(=O)[C@H](CC(C)C)NC(C)=O)C(=O)N[C@@H](CO)C(=O)N[C@@H](Cc1ccccc1)C(=O)N[C@@]1(C)CCCC=CCCC[C@@](C)(C(=O)N[C@@H](CCC(N)=O)C(=O)N[C@@H](CCC(=O)O)C(=O)N[C@@H](CCC(=O)O)C(=O)N[C@@H](CCCCN)C(=O)N[C@@H](CO)C(=O)N[C@@H](CO)C(=O)N[C@@H](CC(N)=O)C(N)=O)NC(=O)CNC(=O)[C@H](CCC(=O)O)NC(=O)[C@H](CC(=O)O)NC1=O
In the case of B6, the IC50 was no less than 100 µM.

B7: SP18 (peptide)
peptide: Ac-LGANDELISFKDEG[S5]QEE[S5]SSN-NH2
modifications: staple 15-19
SMILES: CC[C@H](C)[C@H](NC(=O)[C@H](CC(C)C)NC(=O)[C@H](CCC(=O)O)NC(=O)[C@H](CC(=O)O)NC(=O)[C@H](CC(N)=O)NC(=O)[C@H](C)NC(=O)CNC(=O)[C@H](CC(C)C)NC(C)=O)C(=O)N[C@@H](CO)C(=O)N[C@@H](Cc1ccccc1)C(=O)N[C@@H](CCCCN)C(=O)N[C@@H](CC(=O)O)C(=O)N[C@@H](CCC(=O)O)C(=O)NCC(=O)N[C@@]1(C)CCCC=CCCC[C@@](C)(C(=O)N[C@@H](CO)C(=O)N[C@@H](CO)C(=O)N[C@@H](CC(N)=O)C(N)=O)NC(=O)[C@H](CCC(=O)O)NC(=O)[C@H](CCC(=O)O)NC(=O)[C@H](CCC(N)=O)NC1=O
In the case of B7, the IC50 was found to be 60.1 µM.

B8: SP17 (peptide)
peptide: Ac-LGANDELISFK[S5]EGE[S5]EEKSSN-NH2
modifications: staple 12-16
SMILES: CC[C@H](C)[C@H](NC(=O)[C@H](CC(C)C)NC(=O)[C@H](CCC(=O)O)NC(=O)[C@H](CC(=O)O)NC(=O)[C@H](CC(N)=O)NC(=O)[C@H](C)NC(=O)CNC(=O)[C@H](CC(C)C)NC(C)=O)C(=O)N[C@@H](CO)C(=O)N[C@@H](Cc1ccccc1)C(=O)N[C@@H](CCCCN)C(=O)N[C@@]1(C)CCCC=CCCC[C@@](C)(C(=O)N[C@@H](CCC(=O)O)C(=O)N[C@@H](CCC(=O)O)C(=O)N[C@@H](CCCCN)C(=O)N[C@@H](CO)C(=O)N[C@@H](CO)C(=O)N[C@@H](CC(N)=O)C(N)=O)NC(=O)[C@H](CCC(=O)O)NC(=O)CNC(=O)[C@H](CCC(=O)O)NC1=O
As for B8, the IC50 is 52.9 µM.

B9: SP15 (peptide)
peptide: Ac-LGANDELISFKDEGEQEEKSS-NH2
notes: Linear, not crosslinked
As to B9, the IC50 was 6.08 µM.

These data come from patent US20170266254A1 (AILERON THERAPEUTICS, published 2017).
